B1: Mineralocorticoid receptor, residues 600 to 675; numbered along this chain, P08235 (parent)
chain: SKICLVCGDEASGCHYGVVTCGSCKVFFKRAVEGQHNYLCAGRNDCIIDKIRRKNCPACRLQKCLQAGMNLGARKS

± gives the uncertainty stated by the source.

The variants in this data set derive from B1. Put plainly: abundance fitness (aPCA) (normalised: wild type 0, dead -1); higher = more abundant; growth selection in yeast, the domain comes from the species named. The settings on record: Homo sapiens.
Regarding SKICLVHGDEASGCHYGVVTCGSCKVFFKRAVEGQHNYLCAGRNDCIIDKIRRKNCPACRLQKCLQAGMNLGARKS [C7H], the abundance fitness was -0.802 ± 0.46.

On to SKHCLVCGDEASGCHYGVVTCGSCKVFFKRAVEGQHNYLCAGRNDCIIDKIRRKNCPACRLQKCLQAGMNLGARKS [I3H], for which the abundance fitness is -0.11 ± 0.066.

Regarding SKNCLVCGDEASGCHYGVVTCGSCKVFFKRAVEGQHNYLCAGRNDCIIDKIRRKNCPACRLQKCLQAGMNLGARKS [I3N], the abundance fitness was -0.022 ± 0.072.

For the variant SKICLVCGDEASGCHYGVVTCGSCKVFFKRGVEGQHNYLCAGRNDCIIDKIRRKNCPACRLQKCLQAGMNLGARKS [A31G], the abundance fitness worked out at 0.001 ± 0.16.

SKICLTCGDEASGCHYGVVTCGSCKVFFKRAVEGQHNYLCAGRNDCIIDKIRRKNCPACRLQKCLQAGMNLGARKS [V6T]: the abundance fitness was -0.148 ± 0.06.

On to SKICLMCGDEASGCHYGVVTCGSCKVFFKRAVEGQHNYLCAGRNDCIIDKIRRKNCPACRLQKCLQAGMNLGARKS [V6M], for which the abundance fitness was -0.416 ± 0.09.

As for SKICLVCGDGASGCHYGVVTCGSCKVFFKRAVEGQHNYLCAGRNDCIIDKIRRKNCPACRLQKCLQAGMNLGARKS [E10G], the abundance fitness turned out to be 0.043 ± 0.04.

Regarding SKICLVCGDEASGCHYGVVTCGSCKVFFKRAVEGQHNYLCAGRNDCIIDKIRRKNCPACRLQKCLQAGMNLVARKS [G72V], the abundance fitness came out at 0.012 ± 0.036.

Take SKICLVCGDEASGCHYGVVTKGSCKVFFKRAVEGQHNYLCAGRNDCIIDKIRRKNCPACRLQKCLQAGMNLGARKS [C21K]: the abundance fitness was -1.25 ± 0.32.

For the variant SKICLVCGDEASGCHYGVVTGGSCKVFFKRAVEGQHNYLCAGRNDCIIDKIRRKNCPACRLQKCLQAGMNLGARKS [C21G], the abundance fitness is -1.03 ± 0.13.

Take SKICLVCGDEASGCHYGVVTCGSCKVFFKRAVEGQHNYLCAGRNDCIIDKILRKNCPACRLQKCLQAGMNLGARKS [R52L]: the abundance fitness is -0.149 ± 0.062.

Consider SKICLVCGDEASGCHYGVVTCGSCKVFFKRAVEGQHNYLCAGRNDCIIDKIVRKNCPACRLQKCLQAGMNLGARKS [R52V], for which the abundance fitness is -0.114 ± 0.057.

With SKICLVCGDEASGCHYGVVTCGSCKVFFKRAVEGQHNYLCAGRNDCIIDKITRKNCPACRLQKCLQAGMNLGARKS [R52T], the abundance fitness was -0.04 ± 0.054.

Take SKICLVCGDEASGCHYGVVTCGSCKVFFKRAVEGQHNYLCAGRNDCIIDKIARKNCPACRLQKCLQAGMNLGARKS [R52A]: the abundance fitness was -0.034 ± 0.043.

Turning to SKICLVCGDEASGCHYGVVTCGSCKVFFKRAVEGQHNYLCAGRNDCIIDKIRRKNCPACRLQRCLQAGMNLGARKS [K63R], the abundance fitness was -0.082 ± 0.045.

Turning to SKICLVCGDEASGCHYGVVTCGSCKVFFKRAVEGQHNYLCAGRNDCIIDKIRRKNCPACRLQACLQAGMNLGARKS [K63A], the abundance fitness was -0.075 ± 0.045.

With SGICLVCGDEASGCHYGVVTCGSCKVFFKRAVEGQHNYLCAGRNDCIIDKIRRKNCPACRLQKCLQAGMNLGARKS [K2G], the abundance fitness is -0.163 ± 0.042.

As for SKICLVCGDEAVGCHYGVVTCGSCKVFFKRAVEGQHNYLCAGRNDCIIDKIRRKNCPACRLQKCLQAGMNLGARKS [S12V], the abundance fitness is -0.106 ± 0.069.

Regarding SKICLVCGDEAAGCHYGVVTCGSCKVFFKRAVEGQHNYLCAGRNDCIIDKIRRKNCPACRLQKCLQAGMNLGARKS [S12A], the abundance fitness was -0.132 ± 0.073.

As to SKICLVCGDEASGCHYGVVTCGSCKVFFKRAVEGQHNYLCAGRNDCIIDKIRRKNCTACRLQKCLQAGMNLGARKS [P57T], the abundance fitness was -0.082 ± 0.04.

SKICLVCGDEASGCHYGVVTCGSCKVFFKRAVEGQHNYLCAGRNDCIIDKIRRKNCNACRLQKCLQAGMNLGARKS [P57N]: the abundance fitness was -0.018 ± 0.038.

Regarding SKICLVCGDEASGCHYWVVTCGSCKVFFKRAVEGQHNYLCAGRNDCIIDKIRRKNCPACRLQKCLQAGMNLGARKS [G17W], the abundance fitness was -0.169 ± 0.062.

For SKICLVCGDEASGCHYDVVTCGSCKVFFKRAVEGQHNYLCAGRNDCIIDKIRRKNCPACRLQKCLQAGMNLGARKS [G17D], the abundance fitness was -0.031 ± 0.086.

Regarding MKICLVCGDEASGCHYGVVTCGSCKVFFKRAVEGQHNYLCAGRNDCIIDKIRRKNCPACRLQKCLQAGMNLGARKS [S1M], the abundance fitness is -0.06 ± 0.074.

As for SKICLVCGDEASGCHYGVVTCGSCKVFFKRAVEGQHNYLCAGRNDCIIDKIRRKNCPLCRLQKCLQAGMNLGARKS [A58L], the abundance fitness is -0.175 ± 0.047.

As to SKICLVCLDEASGCHYGVVTCGSCKVFFKRAVEGQHNYLCAGRNDCIIDKIRRKNCPACRLQKCLQAGMNLGARKS [G8L], the abundance fitness was -0.08 ± 0.045.

Consider SKICYVCGDEASGCHYGVVTCGSCKVFFKRAVEGQHNYLCAGRNDCIIDKIRRKNCPACRLQKCLQAGMNLGARKS [L5Y], for which the abundance fitness is -0.076 ± 0.071.

For SKICLVCGDEASGCHYGVVTCGSCKVFFKRAVEGQHNYLCAGMNDCIIDKIRRKNCPACRLQKCLQAGMNLGARKS [R43M], the abundance fitness was 0.008 ± 0.048.

Consider SKICLVCGDEASGCHYGVVTCGSCKVFFKRAVEGQHNYLCAGQNDCIIDKIRRKNCPACRLQKCLQAGMNLGARKS [R43Q], for which the abundance fitness is -0.067 ± 0.043.

Take SKICLVCGDEASGCHYGVVTCGSCKVFFKRAVEGQHNYLCACRNDCIIDKIRRKNCPACRLQKCLQAGMNLGARKS [G42C]: the abundance fitness is -0.088 ± 0.046.

On to SKICLVCGDEASGCHYGVVTCGSCKVFFKRAVEGKHNYLCAGRNDCIIDKIRRKNCPACRLQKCLQAGMNLGARKS [Q35K], for which the abundance fitness was found to be 0.011 ± 0.06.

Turning to SKICLVCGDEASGCHYGVVTCGSCKVFFKRAVEGQHNYLCAGRNDCIIDKIRRKNCPACRLQKCAQAGMNLGARKS [L65A], the abundance fitness was -0.05 ± 0.045.

SKICLVCGDEASGCHYGVVTCGSCKVFFWRAVEGQHNYLCAGRNDCIIDKIRRKNCPACRLQKCLQAGMNLGARKS [K29W]: the abundance fitness is -0.085 ± 0.066.

Consider SKICLVCGDEASGCHYGVVTCGSCKVFFQRAVEGQHNYLCAGRNDCIIDKIRRKNCPACRLQKCLQAGMNLGARKS [K29Q], for which the abundance fitness is -0.003 ± 0.095.

In the case of SKICLVCGDEASGCHYGVVTCGSCKVFFHRAVEGQHNYLCAGRNDCIIDKIRRKNCPACRLQKCLQAGMNLGARKS [K29H], the abundance fitness was -0.002 ± 0.11.

Regarding SKICLVCGDEASGCHYGGVTCGSCKVFFKRAVEGQHNYLCAGRNDCIIDKIRRKNCPACRLQKCLQAGMNLGARKS [V18G], the abundance fitness is -0.117 ± 0.042.

For the origin of these results see the Human Domainome abundance scans (Beltran et al. 2025).
